{"source": "paper doi:10.1101/797449", "molecular_target": "dsRBD1 of human TAR RNA Binding Protein (TRBP2) (human)", "experiment": "SEC-MALS", "data": [{"substance": "dsRBD1 of human TAR RNA Binding Protein (TRBP2) (domain or fragment)", "values": [{"measurement": "population of tetramer relative to monomer", "value": 0.25}, {"measurement": "stoichiometry N", "value": 4}]}]}
